Assay [1] deals with T1, monomeric alpha-synuclein (UniProt P37840 1-140). In words: SPR, captured bAb. The procedure: (§1) Any non-covalently bound antibodies were removed by three successive regenerations of 10 mM Glycine pH 1.7 (GE Healthcare, 28-9950-84). Immobilization levels were evaluated following ethanolamine capping (Bound) and finally following regeneration (Final). Non-covalent immobilization of alpha-synuclein biparatopic antibodies on flow cell 2 of channels 1-8 was performed at a final concentration of 5 μg/mL, diluted in 10 mM sodium acetate pH 5.5 (GE Healthcare, BR-1003-52). Non-covalent immobilization of an isotype control antibody on flow cell 1 of channels 1-8 was performed at a final concentration of 5 μg/mL, diluted in 10 mM sodium acetate pH 5.5 (GE Healthcare, BR-1003-52).
(§2) Binding affinity of alpha-synuclein biparatopic antibodies to monomeric or fibrillar alpha-synuclein species was performed using a single-cycle kinetics method. The instrument was primed with 1×HBS-P+ buffer (10× stock from GE Healthcare, BR-1003-52 diluted in Milli-Q water). Injections of monomeric alpha-synuclein (Boston Biochem, SP-485), increasing in concentration from 0.62-50 nM prepared from serial 2-fold dilutions, were performed with contact times of 300 sec/injection at a flow rate of 30 μL/min. A dissociation phase of 900 sec followed the final 50 nM injection. Regeneration of the sensor to the goat anti-human antibody layer was achieved using 3 regenerations of 10 mM Glycine pH 1.7. […] Regeneration of the sensor to the goat anti-mouse antibody layer was achieved using 3 regenerations of 10 mM Glycine pH 1.7. Results obtained from single-cycle kinetics were evaluated by Biacore 8K evaluation software with 1:1 binding homogenous Langmuir model with a preceeding buffer injection as a blank subtraction. The following kinetic parameters were obtained: on-rate (ka), off-rate (kd), affinity constant (KD, ratio of kd by ka), maximum response (Rmax), and goodness of fit (Chi2).
(§3) Kinetic constants were determined from 1:1 homogenous binding models for all cases.
For orientation: Surface plasmon resonance follows binding to a sensor surface in real time, without labels.

The target of assay [2] is T2, alpha-synuclein fibrils (UniProt P37840 1-140). Description: SPR, captured bAb. As for the experimental part:
as §1, §2, §3

Assay [3] deals with T1, monomeric alpha-synuclein. In words: SPR, captured bAb; head says nM, kd/ka gives M. As for the experimental part:
as §1, §2, §3

The target of assay [4] is T2, alpha-synuclein fibrils. Description: SPR, captured bAb; head says nM, kd/ka gives M. As for the experimental part: as §1, §2, §3

Among the data in patent US20250340623A1 (AC IMMUNE, published 2025) are koff, kon and Kd values, retold here.

B1: ACI-1101C8_4317A4 (bispecific antibody, V domains shown)
VH 1: EVQLVESGGGLVQPKGSLKLSCAASGFSFNIYAMNWVRQAPGKGLEWVARIRSKSNNYATYYADSVKDRFTISRADSESMLYLQMNNLKTEDTAMYYCVRVGLRFYAMDYWGQGTSVTVSS
VL 1: DVLMTQTPLSLPVSLGDQASISCRSSQSIVHSNGNTYLEWYLQKPGQSPKLLIYKVSNRFSGVPDRFSGSGSGTDFTLKISRVEAEDLGVYYCFQGSQGPLTFGAGTKLELK
VH 2: EVQLQQSGAELVRPGASVKLSCTASGFNIKDDYMHWVKQRPEQGLEWIGWIDPENGDTEYASKFQGKATMTADTSSNTAYLQLSSLTSEDTAVYYCKTWGTTQALFPYWGQGTLVTVSA
VL 2: DIVMTQSQKFMYTSVGDRVSITCKASQNVGNAVGWYQQKAGQSPKLLIHSASNRYTGVPDRFTGTGSGTDFTLTINNMQSEDLADYFCQQYRSYPLTFGAGTKLELK
notes: biparatopic; Arm A ACI-7067-1101C8-Ab2, Arm B ACI-7088-4317A4-Ab1; engineered constant domains not specified
Consider B1, for which the off-rate constant (koff) (commonly a measure of how fast the partners let go of each other) was found to be 0.00158 s⁻¹ in assay [1] and 3e-05 s⁻¹ in assay [2]. For the same molecule, the results for the kon in assay [1] and in assay [2] were 2.35e+06 M⁻¹ s⁻¹ and 69300 M⁻¹ s⁻¹, respectively. For the same molecule, the Kd (as a rule, the equilibrium constant for the complex coming apart) in assay [3] was 0.671 nM; in assay [4], 0.433 nM.

B2: ACI-1101C8_4301E12 (bispecific antibody, V domains shown)
VH 1: EVQLVESGGGLVQPKGSLKLSCAASGFSFNIYAMNWVRQAPGKGLEWVARIRSKSNNYATYYADSVKDRFTISRADSESMLYLQMNNLKTEDTAMYYCVRVGLRFYAMDYWGQGTSVTVSS
VL 1: DVLMTQTPLSLPVSLGDQASISCRSSQSIVHSNGNTYLEWYLQKPGQSPKLLIYKVSNRFSGVPDRFSGSGSGTDFTLKISRVEAEDLGVYYCFQGSQGPLTFGAGTKLELK
VH 2: DVQLQESGPGLVKPSQSLSLTCSVTGYSITSGYYWNWIRQFPGNKLEWMGYISDDGSKNYNPSLKNRISITRDTSKNQLFMKLNSVTTEDTATYYCARGDSRLGQGTLVTVSA
VL 2: not shown
notes: biparatopic; Arm A ACI-7067-1101C8-Ab2, Arm B ACI-7088-4301E12-Ab2; engineered constant domains not specified
With B2, the koff in assay [1] was 0.000444 s⁻¹; in assay [2], 9.65e-07 s⁻¹. In addition, the association rate constant (kon) (usually a measure of how fast the partners come together) came out at 224000 M⁻¹ s⁻¹ in assay [1] and 44900 M⁻¹ s⁻¹ in assay [2]. For the same molecule, the results for the Kd in assay [3] and in assay [4] were 1.98 nM and 0.0215 nM, respectively.
